Experimental data as given in FireProtDB (doi:10.1021/bi9621829).

Details: Homo sapiens; pH 2.7; Thermal; DSC; glycine 0.05 M; reversible: yes; whole UniProt chain shown

B1: Lysozyme C wild type, P61626 (protein)
chain: MKALIVLGLVLLSVTVQGKVFERCELARTLKRLGMDGYRGISLANWMCLAKWESGYNTRATNYNAGDRSTDYGIFQINSRYWCNDGKTPGAVNACHLSCSALLQDNIADAVACAKRVVRDPQGIRAWVAWRNRCQNRDVRQYVQGCGV
Tm: 64.9 °C | heat capacity change of unfolding: 1.58 kcal/mol/K | unfolding enthalpy (calorimetric): 114 kcal/mol | unfolding enthalpy (van 't Hoff): 120 kcal/mol
